Assay [1] has as its target T1, human MerTK expressed on cells (human, UniProt Q12866 21-999).
T1 construct: whole, on cells; also called CHO-K1-hMerTK; CHO-K1-MerTK
T1 sequence (looked up): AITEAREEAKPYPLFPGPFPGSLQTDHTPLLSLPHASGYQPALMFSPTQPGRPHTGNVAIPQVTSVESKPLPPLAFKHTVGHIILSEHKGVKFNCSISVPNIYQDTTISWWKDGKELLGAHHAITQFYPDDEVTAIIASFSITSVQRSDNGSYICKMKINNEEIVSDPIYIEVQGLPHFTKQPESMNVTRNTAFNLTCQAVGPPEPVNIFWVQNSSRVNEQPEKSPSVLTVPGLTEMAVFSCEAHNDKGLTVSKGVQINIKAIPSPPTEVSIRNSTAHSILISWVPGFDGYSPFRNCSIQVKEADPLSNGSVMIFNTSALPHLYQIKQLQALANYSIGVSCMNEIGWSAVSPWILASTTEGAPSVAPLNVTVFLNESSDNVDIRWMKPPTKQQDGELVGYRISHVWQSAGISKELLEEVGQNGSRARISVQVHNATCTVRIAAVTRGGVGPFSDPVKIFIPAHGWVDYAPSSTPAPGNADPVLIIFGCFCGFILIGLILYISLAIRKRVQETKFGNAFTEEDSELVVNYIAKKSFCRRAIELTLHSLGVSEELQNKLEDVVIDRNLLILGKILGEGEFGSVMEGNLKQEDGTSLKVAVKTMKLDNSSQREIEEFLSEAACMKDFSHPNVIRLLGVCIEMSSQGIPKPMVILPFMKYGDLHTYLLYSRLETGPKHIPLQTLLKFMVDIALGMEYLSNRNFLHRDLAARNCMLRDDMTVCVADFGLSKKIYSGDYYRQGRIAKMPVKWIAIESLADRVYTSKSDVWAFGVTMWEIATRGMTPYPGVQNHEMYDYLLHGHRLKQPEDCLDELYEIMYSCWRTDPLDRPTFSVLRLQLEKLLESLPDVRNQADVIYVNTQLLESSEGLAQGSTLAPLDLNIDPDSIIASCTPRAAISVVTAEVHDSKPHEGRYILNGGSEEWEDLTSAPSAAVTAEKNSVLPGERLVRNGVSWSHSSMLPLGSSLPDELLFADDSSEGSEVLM
Kind of assay: FACS on CHO-K1 cells overexpressing human MerTK, MFI (PE). The procedure:
To evaluate the binding property to the antigen expressed on the cells, the chimeric monoclonal antibodies were analyzed for their binding to human MerTK overexpressed on CHO-K1 cells by FACS. Briefly, human MerTK overexpressing CHO-K1 (CHO-K1-MerTK) cells were firstly incubated with 5-fold serially diluted mAbs starting at 20 nM at 4° C. for 1 hour. After washing with FACS buffer, the PE conjugated anti-human IgG-Fc secondary antibody was added to each well and incubated at 4° C., for 30 mins. The mean fluorescence intensity (MFI) of PE were evaluated by QuantAnalyzer 16.

The target in assay [2] is T1, human MerTK expressed on cells. Kind of assay: FACS on SK-MEL-5 cells expressing human MerTK, geometric mean. The procedure:
To evaluate the binding properties on MerTK expressed on cells, the chimeric monoclonal antibodies were analyzed for their binding to human melanoma cell line SK-MEL-5 expressing MerTK by FACS analysis. Briefly, SK-MEL-5 cells were firstly incubated with 5-fold serially diluted chimeric mAbs starting at 20 nM at 4° C. for 30 mins. After washing by FACS buffer, the PE conjugated anti-human IgG secondary antibody was incubated with the cell-antibody complex in the wells at 4° C. for 30 mins to detect the antibodies those bound to the cells. The MFI of PE was evaluated by QuantAnalyzer 16.

The target in assay [3] is T2, cyno MerTK-his protein (cynomolgus, UniProt A0A2K5V1H9 27-505).
T2 construct: also called cyno MerTK protein; Cynomolgus
T2 sequence: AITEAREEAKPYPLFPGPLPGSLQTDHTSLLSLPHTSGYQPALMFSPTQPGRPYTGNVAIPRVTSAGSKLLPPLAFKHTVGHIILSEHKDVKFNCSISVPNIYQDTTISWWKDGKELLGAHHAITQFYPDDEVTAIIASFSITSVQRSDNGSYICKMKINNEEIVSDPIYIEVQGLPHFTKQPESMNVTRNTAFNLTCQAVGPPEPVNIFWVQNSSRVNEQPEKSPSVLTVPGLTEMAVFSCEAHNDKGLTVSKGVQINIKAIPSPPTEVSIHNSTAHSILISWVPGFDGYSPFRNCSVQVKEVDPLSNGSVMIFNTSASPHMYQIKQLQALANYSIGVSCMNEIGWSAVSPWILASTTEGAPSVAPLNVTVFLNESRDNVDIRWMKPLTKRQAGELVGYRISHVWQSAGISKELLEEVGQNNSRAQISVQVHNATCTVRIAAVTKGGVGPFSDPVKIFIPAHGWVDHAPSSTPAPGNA
Kind of assay: ELISA, coated cyno MerTK-his. The protocol: (§1) To evaluate the binding activity, the chimeric mAbs were subjected to ELISA test. Briefly, 96-well plates were coated with human or cyno MerTK-his protein at 2 μg/mL in PBS, 100 μL/well at 4° C. overnight, then blocked with 150 μL/well of 1% BSA. Five-fold dilutions of MerTK antibodies starting from 20 nM were added to each well and incubated for 1 hour at room temperature. The plates were washed with PBS/Tween-20 and then incubated with goat anti-human IgG Fe antibody conjugated with Horse Radish Peroxidase (HRP) for 30 minutes (mins) at room temperature. After washing, the plates were developed with TMB substrate and subsequent stop solution was added to complete the reaction. The signal from each well was read by spectrophotometer at OD 450 nm.

The target in assay [4] is T3, human MerTK-his protein (human, UniProt Q12866 21-505).
T3 construct: extracellular domain; also called hMerTK-His; human MerTK protein
T3 sequence (looked up): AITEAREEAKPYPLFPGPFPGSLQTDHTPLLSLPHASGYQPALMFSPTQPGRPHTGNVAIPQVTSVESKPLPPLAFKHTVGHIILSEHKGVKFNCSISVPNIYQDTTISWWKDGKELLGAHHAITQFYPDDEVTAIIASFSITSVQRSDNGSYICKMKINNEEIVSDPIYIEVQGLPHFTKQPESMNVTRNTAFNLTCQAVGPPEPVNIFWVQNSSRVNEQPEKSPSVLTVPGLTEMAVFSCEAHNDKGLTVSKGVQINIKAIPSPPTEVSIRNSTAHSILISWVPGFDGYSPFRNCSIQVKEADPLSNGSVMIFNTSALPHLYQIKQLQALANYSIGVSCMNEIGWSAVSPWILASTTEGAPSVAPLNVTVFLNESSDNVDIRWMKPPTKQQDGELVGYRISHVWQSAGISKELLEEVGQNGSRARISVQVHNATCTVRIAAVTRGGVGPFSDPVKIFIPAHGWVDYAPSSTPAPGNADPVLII
Kind of assay: ELISA, coated human MerTK-his. The protocol:
as §1

B1: 254B4D9 chimeric monoclonal antibody (antibody, V domains shown)
VH: QIQLVQSGPELKKPGETVKISCKASGYTFTAYGMSWVKQAPGKGLQWMGWINTYSGVPTYTDDFKGRFAFSLEASASTAFLQINNLKNEDTSTYFCARRAAVVAKYWYFDVWGTGTTVTVSS
VL: DIQMTQSPSSLFASLGGKVIITCKSSQDINKRISWYQHKPGKGPRLLIHSTSSLQPGIPLRFSGSGSGRDYSFSISNLEPEDIATYFCLQYDNLLTFGAGTKLELK
Usually EC50 stands for the concentration needed to bring the measured effect to its halfway point. A lower EC50 goes with higher potency in that assay. With B1, the EC50 in assay [1] is 190 pM; in assay [2], 180 pM; in assay [3], 56 pM; in assay [4] it was 47 pM. Also, the values for the Top in assay [1] and in assay [2] were 5630 MFI (PE) and 4840 Geometric Mean, respectively.

B2: 280C6A3 chimeric monoclonal antibody (antibody, V domains shown)
VH: QVQLQQSGPELVKPGASVKLSCKASGYSFTTYDINWVKQRPGQGLEWIGWIYPRDGSTKYNEKFKGKATLTLDTSSNTAYMGLHSLTSEDSAVYFCARGYYDNLYYFDYWGQGTTLTVSS
VL: EIVLTQSPTTMAASPGEKITITCSASSSVSSNYLHWYQQKPGFSPKLLIYRTSNLASGVPARFSGSGSGTSYSLTIGTMEAEDVATYYCQQGRIVPLTFGAGTKLELK
Turning to B2, the EC50 in assay [1] stood at 44 pM; in assay [3], 14 pM; in assay [4], 12 pM. The Top in assay [1] was 8310 MFI (PE).

The values are drawn from patent publication US20260028422A1 (CONCEPT TO MEDICINE BIOTECH, published 2026).
